Assay results reported in patent publication US20210340231A1 (FAPON BIOTECH, published 2021).

Target: T1, CTNI quality control recombinant protein (PK2-CTNI-1, 170120, produced by the applicant) (human, UniProt P19429 2-210, limits assumed)
T1 construct: also called cardiac troponin I
Test: AMC sensor kinetics, antibody captured, cTnI analyte
Procedure: Using the AMC sensor, the purified antibody was diluted with PBST to 10 μg/ml, and the CTNI quality control recombinant protein (PK2-CTNI-1, 170120, produced by the applicant) was serially diluted with PBST to 400 nmol/ml, 200 nmol/ml, 100 nmol/ml, 50 nmol/ml, 25 nmol/ml, 12.5 nmol/ml, 6.25 nmol/ml, and 0 nmol/ml.

T1 sequence (P19429 2-210 limits assumed): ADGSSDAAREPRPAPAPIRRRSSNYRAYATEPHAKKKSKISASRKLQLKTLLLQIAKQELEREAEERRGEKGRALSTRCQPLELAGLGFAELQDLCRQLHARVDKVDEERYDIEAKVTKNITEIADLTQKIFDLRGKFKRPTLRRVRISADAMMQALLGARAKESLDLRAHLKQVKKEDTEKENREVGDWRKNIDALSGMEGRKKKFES

| Kd [nM] | koff [s⁻¹] | kon [M⁻¹ s⁻¹] | Binder |
| --- | --- | --- | --- |
| 0.865 | 0.000311 | 359000 | Mutation 1-1 (antibody, V domains shown, built as for Mutation 1) VH: EVQLQQSGAELVKPGASVKLSCTASGFNLKDYYMHWMKQRTEQGLDWIGRIDPEDAETKYAPEFQGKATITADTSSNTAYLQLSTLTSEDTAVYYCARYYSSYLPFVYWGQGTLVTASA VL: DVVMTQTPLSLSVSLGDQASISCRSSQSILYSNRHTYLHWYLQKPGQSPKLLIFQLSNRFSGVPDRFSGSGSGTDFTLKINRVEAEDLGVYFCSQSTHLPYTFGSGTKLEIKR |
| 0.922 | 0.000413 | 448000 | Mutation 1-10 (antibody, V domains shown, built as for Mutation 1) VH: EVQLQQSGAELVKPGASVKLSCTASGFNIKDYFMHWMKQRTEQGLDWIGRIDPEDAETRYAPEFQGKATITADTSSNTAYLQLSTLTSEDTAVYYCARYYSSYLPFVYWGQGTLVTASA VL: DVVMTQTPLSLSVSLGDQASISCRSSQSIIYSNRHTYLHWYLQKPGQSPKLLIFQLSNRFSGVPDRFSGSGSGTDFTLKINRVEAEDLGVYFCSQSTHLPYTFGSGTKLEIKR |
| 0.917 | 0.000245 | 267000 | Mutation 1-15 (antibody, V domains shown, built as for Mutation 1) VH: EVQLQQSGAELVKPGASVKLSCTASGFNIKDYYMHWMKQRTEQGLDWIGRIDPEDGETRYAPEFQGKATITADTSSNTAYLQLSTLTSEDTAVYYCARYYSSYVPFVYWGQGTLVTASA VL: DVVMTQTPLSLSVSLGDQASISCRSSQSIIYSNRHTYLHWYLQKPGQSPKLLIFQVSNRFSGVPDRFSGSGSGTDFTLKINRVEAEDLGVYFCSQSTHIPYTFGSGTKLEIKR |
| 0.804 | 0.00056 | 697000 | Mutation 1-7 (antibody, V domains shown, built as for Mutation 1) VH: EVQLQQSGAELVKPGASVKLSCTASGFNIKDYYMHWMKQRTEQGLDWIGRIDPEDAETRYAPEFQGKATITADTSSNTAYLQLSTLTSEDTAVYYCARYYSSYIPFVYWGQGTLVTASA VL: DVVMTQTPLSLSVSLGDQASISCRSSQSLIYSNRHTYLHWYLQKPGQSPKLLIFQISNRFSGVPDRFSGSGSGTDFTLKINRVEAEDLGVYFCSQSTHLPYTFGSGTKLEIKR |
| 0.303 | 2.58e-05 | 85100 | Mutation 1-8 (antibody, V domains shown, built as for Mutation 1) VH: EVQLQQSGAELVKPGASVKLSCTASGFNLKDYFMHWMKQRTEQGLDWIGRIDPEDGETRYAPEFQGKATITADTSSNTAYLQLSTLTSEDTAVYYCARYYSSYLPFVYWGQGTLVTASA VL: DVVMTQTPLSLSVSLGDQASISCRSSQSLIYSNRHTYLHWYLQKPGQSPKLLIFQLSNRFSGVPDRFSGSGSGTDFTLKINRVEAEDLGVYFCSQSTHLPFTFGSGTKLEIKR |
| 0.676 | 0.000122 | 181000 | Mutation 1-3 (antibody, V domains shown, built as for Mutation 1) VH: EVQLQQSGAELVKPGASVKLSCTASGFNIKDYYMHWMKQRTEQGLDWIGRIDPEDGETKYAPEFQGKATITADTSSNTAYLQLSTLTSEDTAVYYCARYYSSYLPFVYWGQGTLVTASA VL: DVVMTQTPLSLSVSLGDQASISCRSSQSLLYSNRHTYLHWYLQKPGQSPKLLIFQLSNRFSGVPDRFSGSGSGTDFTLKINRVEAEDLGVYFCSQSTHIPYTFGSGTKLEIKR |
| 0.97 | 0.000659 | 679000 | Mutation 1-25 (antibody, V domains shown, built as for Mutation 1) VH: EVQLQQSGAELVKPGASVKLSCTASGFNLKDYYMHWMKQRTEQGLDWIGRIDPEDGETRYAPEFQGKATITADTSSNTAYLQLSTLTSEDTAVYYCARYYSSYIPFVYWGQGTLVTASA VL: DVVMTQTPLSLSVSLGDQASISCRSSQSIIYSNRHTYLHWYLQKPGQSPKLLIFQISNRFSGVPDRFSGSGSGTDFTLKINRVEAEDLGVYFCSQSTHLPYTFGSGTKLEIKR |
| 0.487 | 0.000191 | 393000 | Mutation 1-19 (antibody, V domains shown, built as for Mutation 1) VH: EVQLQQSGAELVKPGASVKLSCTASGFNIKDYYMHWMKQRTEQGLDWIGRIDPEDGETRYAPEFQGKATITADTSSNTAYLQLSTLTSEDTAVYYCARYYSSYLPFVYWGQGTLVTASA VL: DVVMTQTPLSLSVSLGDQASISCRSSQSLIYSNRHTYLHWYLQKPGQSPKLLIFQLSNRFSGVPDRFSGSGSGTDFTLKINRVEAEDLGVYFCSQSTHIPFTFGSGTKLEIKR |
| 0.866 | 9.18e-05 | 106000 | Mutation 1-9 (antibody, V domains shown, built as for Mutation 1) VH: EVQLQQSGAELVKPGASVKLSCTASGFNLKDYYMHWMKQRTEQGLDWIGRIDPEDGETKYAPEFQGKATITADTSSNTAYLQLSTLTSEDTAVYYCARYYSSYIPFVYWGQGTLVTASA VL: DVVMTQTPLSLSVSLGDQASISCRSSQSLLYSNRHTYLHWYLQKPGQSPKLLIFQISNRFSGVPDRFSGSGSGTDFTLKINRVEAEDLGVYFCSQSTHIPYTFGSGTKLEIKR |
| 0.662 | 0.000101 | 152000 | Mutation 1-16 (antibody, V domains shown, built as for Mutation 1) VH: EVQLQQSGAELVKPGASVKLSCTASGFNLKDYFMHWMKQRTEQGLDWIGRIDPEDAETRYAPEFQGKATITADTSSNTAYLQLSTLTSEDTAVYYCARYYSSYIPFVYWGQGTLVTASA VL: DVVMTQTPLSLSVSLGDQASISCRSSQSLLYSNRHTYLHWYLQKPGQSPKLLIFQISNRFSGVPDRFSGSGSGTDFTLKINRVEAEDLGVYFCSQSTHLPYTFGSGTKLEIKR |
| 0.623 | 0.0001 | 161000 | Mutation 1-5 (antibody, V domains shown, built as for Mutation 1) VH: EVQLQQSGAELVKPGASVKLSCTASGFNLKDYYMHWMKQRTEQGLDWIGRIDPEDGETRYAPEFQGKATITADTSSNTAYLQLSTLTSEDTAVYYCARYYSSYIPFVYWGQGTLVTASA VL: DVVMTQTPLSLSVSLGDQASISCRSSQSIIYSNRHTYLHWYLQKPGQSPKLLIFQISNRFSGVPDRFSGSGSGTDFTLKINRVEAEDLGVYFCSQSTHIPFTFGSGTKLEIKR |
| 0.676 | 0.000477 | 705000 | Mutation 1-21 (antibody, V domains shown, built as for Mutation 1) VH: EVQLQQSGAELVKPGASVKLSCTASGFNLKDYYMHWMKQRTEQGLDWIGRIDPEDAETKYAPEFQGKATITADTSSNTAYLQLSTLTSEDTAVYYCARYYSSYLPFVYWGQGTLVTASA VL: DVVMTQTPLSLSVSLGDQASISCRSSQSLLYSNRHTYLHWYLQKPGQSPKLLIFQLSNRFSGVPDRFSGSGSGTDFTLKINRVEAEDLGVYFCSQSTHLPFTFGSGTKLEIKR |
| 0.725 | 0.000215 | 297000 | Mutation 1-22 (antibody, V domains shown, built as for Mutation 1) VH: EVQLQQSGAELVKPGASVKLSCTASGFNIKDYFMHWMKQRTEQGLDWIGRIDPEDGETRYAPEFQGKATITADTSSNTAYLQLSTLTSEDTAVYYCARYYSSYVPFVYWGQGTLVTASA VL: DVVMTQTPLSLSVSLGDQASISCRSSQSIIYSNRHTYLHWYLQKPGQSPKLLIFQVSNRFSGVPDRFSGSGSGTDFTLKINRVEAEDLGVYFCSQSTHLPYTFGSGTKLEIKR |
| 0.945 | 0.000158 | 167000 | Mutation 1-20 (antibody, V domains shown, built as for Mutation 1) VH: EVQLQQSGAELVKPGASVKLSCTASGFNLKDYFMHWMKQRTEQGLDWIGRIDPEDGETKYAPEFQGKATITADTSSNTAYLQLSTLTSEDTAVYYCARYYSSYVPFVYWGQGTLVTASA VL: DVVMTQTPLSLSVSLGDQASISCRSSQSLIYSNRHTYLHWYLQKPGQSPKLLIFQVSNRFSGVPDRFSGSGSGTDFTLKINRVEAEDLGVYFCSQSTHIPFTFGSGTKLEIKR |
| 0.623 | 0.000268 | 430000 | Mutation 1-2 (antibody, V domains shown, built as for Mutation 1) VH: EVQLQQSGAELVKPGASVKLSCTASGFNIKDYFMHWMKQRTEQGLDWIGRIDPEDGETRYAPEFQGKATITADTSSNTAYLQLSTLTSEDTAVYYCARYYSSYVPFVYWGQGTLVTASA VL: DVVMTQTPLSLSVSLGDQASISCRSSQSLIYSNRHTYLHWYLQKPGQSPKLLIFQVSNRFSGVPDRFSGSGSGTDFTLKINRVEAEDLGVYFCSQSTHIPFTFGSGTKLEIKR |
| 0.806 | 0.000251 | 311000 | Mutation 1-13 (antibody, V domains shown, built as for Mutation 1) VH: EVQLQQSGAELVKPGASVKLSCTASGFNLKDYYMHWMKQRTEQGLDWIGRIDPEDAETRYAPEFQGKATITADTSSNTAYLQLSTLTSEDTAVYYCARYYSSYVPFVYWGQGTLVTASA VL: DVVMTQTPLSLSVSLGDQASISCRSSQSLIYSNRHTYLHWYLQKPGQSPKLLIFQVSNRFSGVPDRFSGSGSGTDFTLKINRVEAEDLGVYFCSQSTHLPFTFGSGTKLEIKR |
| 0.834 | 0.000258 | 309000 | Mutation 1-12 (antibody, V domains shown, built as for Mutation 1) VH: EVQLQQSGAELVKPGASVKLSCTASGFNLKDYFMHWMKQRTEQGLDWIGRIDPEDGETKYAPEFQGKATITADTSSNTAYLQLSTLTSEDTAVYYCARYYSSYLPFVYWGQGTLVTASA VL: DVVMTQTPLSLSVSLGDQASISCRSSQSILYSNRHTYLHWYLQKPGQSPKLLIFQLSNRFSGVPDRFSGSGSGTDFTLKINRVEAEDLGVYFCSQSTHLPYTFGSGTKLEIKR |
| 0.692 | 0.00023 | 333000 | Mutation 1-26 (antibody, V domains shown, built as for Mutation 1) VH: EVQLQQSGAELVKPGASVKLSCTASGFNIKDYFMHWMKQRTEQGLDWIGRIDPEDGETKYAPEFQGKATITADTSSNTAYLQLSTLTSEDTAVYYCARYYSSYLPFVYWGQGTLVTASA VL: DVVMTQTPLSLSVSLGDQASISCRSSQSILYSNRHTYLHWYLQKPGQSPKLLIFQLSNRFSGVPDRFSGSGSGTDFTLKINRVEAEDLGVYFCSQSTHLPFTFGSGTKLEIKR |
| 0.722 | 0.000565 | 782000 | Mutation 1-17 (antibody, V domains shown, built as for Mutation 1) VH: EVQLQQSGAELVKPGASVKLSCTASGFNLKDYYMHWMKQRTEQGLDWIGRIDPEDAETRYAPEFQGKATITADTSSNTAYLQLSTLTSEDTAVYYCARYYSSYLPFVYWGQGTLVTASA VL: DVVMTQTPLSLSVSLGDQASISCRSSQSIIYSNRHTYLHWYLQKPGQSPKLLIFQLSNRFSGVPDRFSGSGSGTDFTLKINRVEAEDLGVYFCSQSTHIPYTFGSGTKLEIKR |
